US20080274976A1 (UNIVERSITY OF UTAH RESEARCH FOUNDATION, published 2008)
Values joined by “and” are separate entries in the source; they are usually repeats but may differ in a detail not shown here. Equal entries are not always repeated.

B1: Shaker-Δ6-46 K+ channel (other)
chain: MAAVALREQQLQRNSLDGYGSLPKLSSQDEEGGAGHGFGGGPQHFEPIPHDHDFCERVVINVSGLRFETQLRTLNQFPDTLLGDPARRLRYFDPLRNEYFFDRSRPSFDAILYYYQSGGRLRRPVNVPLDVFSEEIKFYELGDQAINKFREDEGFIKEEERPLPDNEKQRKVWLLFEYPESSQAARVVAIISVFVILLSIVIFCLETLPEFKHYKVFNTTTNGTKIEEDEVPDITDPFFLIETLCIIWFTFELTVRFLACPNKLNFCRDVMNVIDIIAIIPYFITLATVVAEEEDTLNLPKAPVSPQDKSSNQAMSLAILRVIRLVRVFRIFKLSRHSKGLQILGRTLKASMRELGLLIFFLFIGVVLFSSAVYFAEAGSENSFFKSIPDAFWWAVVTMTTVGYGDMTPVGVWGKIVGSLCAIAGVLTIALPVPVIVSNFNYFYHRETDQEEMQSQNFNHVTSCPYLPGTLGQHMKKSSLSESSSDMMDLDDGVESTPGLTETHPGRSAVAPFLGAQQQQQQPVASSLSMSIDKQLQHPLQQLTQTQLYQQQQQQQQQQQNGFKQQQQQTQQQLQQQQSHTINASAAAATSGSGSSGLTMRHNNALAVSIETDV
B2: Shaker K+ channel, wild type (other)
chain: MAAVAGLYGLGEDRQHRKKQQQQQQHQKEQLEQKEEQKKIAERKLQLREQQLQRNSLDGYGSLPKLSSQDEEGGAGHGFGGGPQHFEPIPHDHDFCERVVINVSGLRFETQLRTLNQFPDTLLGDPARRLRYFDPLRNEYFFDRSRPSFDAILYYYQSGGRLRRPVNVPLDVFSEEIKFYELGDQAINKFREDEGFIKEEERPLPDNEKQRKVWLLFEYPESSQAARVVAIISVFVILLSIVIFCLETLPEFKHYKVFNTTTNGTKIEEDEVPDITDPFFLIETLCIIWFTFELTVRFLACPNKLNFCRDVMNVIDIIAIIPYFITLATVVAEEEDTLNLPKAPVSPQDKSSNQAMSLAILRVIRLVRVFRIFKLSRHSKGLQILGRTLKASMRELGLLIFFLFIGVVLFSSAVYFAEAGSENSFFKSIPDAFWWAVVTMTTVGYGDMTPVGVWGKIVGSLCAIAGVLTIALPVPVIVSNFNYFYHRETDQEEMQSQNFNHVTSCPYLPGTLGQHMKKSSLSESSSDMMDLDDGVESTPGLTETHPGRSAVAPFLGAQQQQQQPVASSLSMSIDKQLQHPLQQLTQTQLYQQQQQQQQQQQNGFKQQQQQTQQQLQQQQSHTINASAAAATSGSGSSGLTMRHNNALAVSIETDV
notes: whole, on cells

Legend:
κM-conotoxin RIIIK [1] = molecular target: κM-conotoxin RIIIK (Conus radiatus)
κM-conotoxin RIIIK [2] = molecular target: κM-conotoxin RIIIK (Conus radiatus); assay: voltage clamp of channels expressed in Xenopus oocytes

Row | Binder | Kd (κM-conotoxin RIIIK [1]) | binding result (κM-conotoxin RIIIK [2])
1 | B1 | 3330 nM and 1260 nM | 
2 | B2 |  | binds
